Reference: paper PMC6446905 (Science (New York, N.Y.), 2018)

T1: TAF3 (human (endogenous in HeLa), UniProt Q5VWG9 1-929)
T1 sequence (looked up): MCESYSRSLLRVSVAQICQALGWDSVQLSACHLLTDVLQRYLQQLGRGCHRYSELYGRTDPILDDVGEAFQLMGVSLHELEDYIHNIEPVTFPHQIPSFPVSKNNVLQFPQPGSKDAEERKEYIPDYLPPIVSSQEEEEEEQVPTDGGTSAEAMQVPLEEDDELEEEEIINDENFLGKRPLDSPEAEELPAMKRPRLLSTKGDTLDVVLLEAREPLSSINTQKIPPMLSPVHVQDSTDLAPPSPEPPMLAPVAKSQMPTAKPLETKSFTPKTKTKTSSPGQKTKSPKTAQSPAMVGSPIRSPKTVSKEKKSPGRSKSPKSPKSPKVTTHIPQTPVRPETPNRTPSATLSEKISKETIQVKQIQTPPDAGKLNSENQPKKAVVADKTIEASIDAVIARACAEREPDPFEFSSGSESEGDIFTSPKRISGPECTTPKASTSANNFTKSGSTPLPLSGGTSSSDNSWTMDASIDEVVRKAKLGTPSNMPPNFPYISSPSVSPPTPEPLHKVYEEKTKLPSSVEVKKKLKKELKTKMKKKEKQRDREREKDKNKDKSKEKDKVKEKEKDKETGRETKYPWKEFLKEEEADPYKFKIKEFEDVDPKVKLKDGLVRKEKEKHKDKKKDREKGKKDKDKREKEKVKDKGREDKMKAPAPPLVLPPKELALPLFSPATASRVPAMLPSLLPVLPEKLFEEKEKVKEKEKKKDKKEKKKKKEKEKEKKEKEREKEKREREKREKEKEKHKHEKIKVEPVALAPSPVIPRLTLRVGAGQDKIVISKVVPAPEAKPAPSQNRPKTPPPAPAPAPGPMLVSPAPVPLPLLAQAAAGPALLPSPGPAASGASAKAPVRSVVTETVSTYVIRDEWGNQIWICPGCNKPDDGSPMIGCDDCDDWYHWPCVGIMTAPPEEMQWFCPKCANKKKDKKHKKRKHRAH

T2: TAF2 (human (endogenous in HeLa), UniProt Q6P1X5 1-1199)
T2 sequence (looked up): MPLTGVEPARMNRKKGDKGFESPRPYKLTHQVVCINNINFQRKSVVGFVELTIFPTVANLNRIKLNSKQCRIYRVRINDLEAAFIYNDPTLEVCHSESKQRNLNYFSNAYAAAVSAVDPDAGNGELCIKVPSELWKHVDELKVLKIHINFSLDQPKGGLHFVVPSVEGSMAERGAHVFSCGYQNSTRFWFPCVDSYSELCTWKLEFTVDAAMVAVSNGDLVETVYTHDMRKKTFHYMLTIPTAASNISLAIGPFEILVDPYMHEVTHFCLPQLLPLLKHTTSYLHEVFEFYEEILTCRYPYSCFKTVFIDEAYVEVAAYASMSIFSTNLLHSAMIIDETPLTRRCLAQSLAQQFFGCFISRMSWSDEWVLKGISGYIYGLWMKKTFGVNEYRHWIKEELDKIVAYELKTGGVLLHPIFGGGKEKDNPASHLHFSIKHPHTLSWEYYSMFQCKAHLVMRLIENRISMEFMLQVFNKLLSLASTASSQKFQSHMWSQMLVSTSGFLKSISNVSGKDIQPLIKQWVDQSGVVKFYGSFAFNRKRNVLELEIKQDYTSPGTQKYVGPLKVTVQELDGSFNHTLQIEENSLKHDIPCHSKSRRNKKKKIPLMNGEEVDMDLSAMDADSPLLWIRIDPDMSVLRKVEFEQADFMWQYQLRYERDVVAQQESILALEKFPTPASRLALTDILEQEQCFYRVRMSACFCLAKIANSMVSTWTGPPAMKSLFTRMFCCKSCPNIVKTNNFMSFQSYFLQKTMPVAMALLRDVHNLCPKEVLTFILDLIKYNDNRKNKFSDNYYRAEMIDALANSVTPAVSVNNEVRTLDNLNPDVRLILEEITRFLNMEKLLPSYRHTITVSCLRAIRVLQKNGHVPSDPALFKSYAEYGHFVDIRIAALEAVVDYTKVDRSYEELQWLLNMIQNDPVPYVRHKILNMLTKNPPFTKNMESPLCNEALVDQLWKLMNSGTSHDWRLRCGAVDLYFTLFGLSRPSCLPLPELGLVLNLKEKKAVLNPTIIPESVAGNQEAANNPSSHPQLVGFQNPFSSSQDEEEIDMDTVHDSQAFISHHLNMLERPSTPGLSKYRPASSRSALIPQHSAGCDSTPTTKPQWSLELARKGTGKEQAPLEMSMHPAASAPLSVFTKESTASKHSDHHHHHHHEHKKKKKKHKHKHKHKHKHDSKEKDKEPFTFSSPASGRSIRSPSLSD

T3: TAF5 (human (endogenous in HeLa), UniProt Q15542 1-800)
T3 sequence (looked up): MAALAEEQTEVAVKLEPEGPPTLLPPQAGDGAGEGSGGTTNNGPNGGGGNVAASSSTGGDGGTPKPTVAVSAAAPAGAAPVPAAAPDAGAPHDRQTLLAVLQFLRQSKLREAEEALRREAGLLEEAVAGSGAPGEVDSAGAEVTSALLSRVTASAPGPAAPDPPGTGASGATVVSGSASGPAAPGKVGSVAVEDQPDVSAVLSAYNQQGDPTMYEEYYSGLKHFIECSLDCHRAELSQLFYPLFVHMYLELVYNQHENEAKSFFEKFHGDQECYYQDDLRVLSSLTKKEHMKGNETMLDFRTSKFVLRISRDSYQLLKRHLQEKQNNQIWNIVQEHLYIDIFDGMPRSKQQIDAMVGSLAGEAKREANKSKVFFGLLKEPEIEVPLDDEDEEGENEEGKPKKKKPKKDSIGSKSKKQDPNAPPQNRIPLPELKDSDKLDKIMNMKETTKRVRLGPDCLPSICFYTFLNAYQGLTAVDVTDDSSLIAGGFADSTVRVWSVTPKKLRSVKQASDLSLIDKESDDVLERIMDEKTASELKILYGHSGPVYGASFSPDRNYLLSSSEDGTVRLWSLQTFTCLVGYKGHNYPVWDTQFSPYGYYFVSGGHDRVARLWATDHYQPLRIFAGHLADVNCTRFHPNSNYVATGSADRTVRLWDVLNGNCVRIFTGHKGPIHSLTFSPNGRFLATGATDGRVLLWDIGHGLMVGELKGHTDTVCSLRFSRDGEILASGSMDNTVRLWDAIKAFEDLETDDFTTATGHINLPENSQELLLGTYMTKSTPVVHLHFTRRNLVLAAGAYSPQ

B1: TAF10 (natural protein)
chain: not shown
B2: TAF13 (natural protein, human (endogenous in HeLa), UniProt Q15543 1-124, looked up)
chain: MADEEEDPTFEEENEEIGGGAEGGQGKRKRLFSKELRCMMYGFGDDQNPYTESVDILEDLVIEFITEMTHKAMSIGRQGRVQVEDIVFLIRKDPRKFARVKDLLTMNEELKRARKAFDEANYGS
B3: TAF8 (natural protein, human (endogenous in HeLa), UniProt Q7Z7C8 1-310, looked up)
chain: MADAAATAGAGGSGTRSGSKQSTNPADNYHLARRRTLQVVVSSLLTEAGFESAEKASVETLTEMLQSYISEIGRSAKSYCEHTARTQPTLSDIVVTLVEMGFNVDTLPAYAKRSQRMVITAPPVTNQPVTPKALTAGQNRPHPPHIPSHFPEFPDPHTYIKTPTYREPVSDYQVLREKAASQRRDVERALTRFMAKTGETQSLFKDDVSTFPLIAARPFTIPYLTALLPSELEMQQMEETDSSEQDEQTDTENLALHISMEDSGAEKENTSVLQQNPSLSGSRNGEENIIDNPYLRPVKKPKIRRKKSLS

Experiments:
Assay in all cases: cryo-EM structure
[1] = biological target: T1, TAF3
[2] = biological target: B3
[3] = biological target: TAF11 (human (endogenous in HeLa), UniProt Q15544 1-211)
[4] = biological target: TAF6 (human (endogenous in HeLa), UniProt P49848 1-677)
[5] = biological target: T2, TAF2
[6] = biological target: T3, TAF5

Chain of TAF11 (Q15544 whole entry): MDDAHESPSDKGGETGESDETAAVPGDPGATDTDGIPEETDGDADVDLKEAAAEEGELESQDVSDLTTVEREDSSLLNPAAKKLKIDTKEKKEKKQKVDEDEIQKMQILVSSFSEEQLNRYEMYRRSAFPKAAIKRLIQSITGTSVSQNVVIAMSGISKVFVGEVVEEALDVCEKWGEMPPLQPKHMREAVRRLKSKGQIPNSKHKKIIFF
Chain of TAF6 (P49848 whole entry): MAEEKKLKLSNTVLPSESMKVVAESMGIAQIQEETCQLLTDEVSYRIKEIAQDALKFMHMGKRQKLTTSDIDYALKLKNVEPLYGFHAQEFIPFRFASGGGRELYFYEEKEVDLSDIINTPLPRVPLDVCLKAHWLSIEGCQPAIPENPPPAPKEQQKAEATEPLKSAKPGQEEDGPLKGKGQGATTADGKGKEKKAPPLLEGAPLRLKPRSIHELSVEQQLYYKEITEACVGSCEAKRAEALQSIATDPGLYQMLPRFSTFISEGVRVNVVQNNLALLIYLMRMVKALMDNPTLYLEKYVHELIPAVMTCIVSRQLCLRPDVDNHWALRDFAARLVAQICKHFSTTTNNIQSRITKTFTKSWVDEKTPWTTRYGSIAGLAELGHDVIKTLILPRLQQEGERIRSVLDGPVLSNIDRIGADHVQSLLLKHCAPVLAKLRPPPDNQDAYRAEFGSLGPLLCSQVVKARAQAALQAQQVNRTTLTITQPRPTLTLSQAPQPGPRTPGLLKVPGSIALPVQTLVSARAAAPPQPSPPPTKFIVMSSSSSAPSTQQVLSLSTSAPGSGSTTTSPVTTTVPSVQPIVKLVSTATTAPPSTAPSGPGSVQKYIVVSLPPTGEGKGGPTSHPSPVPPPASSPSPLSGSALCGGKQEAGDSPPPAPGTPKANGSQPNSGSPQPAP

## B1
[1]
  binding result: binds
[2]
  binding result: binds

## B2
[3]
  binding result: binds

## B3
[4]
  binding result: binds
[5]
  binding result: binds
[6]
  binding result: binds
